Changes are numbered by the printed parent chain.
B1: S7AB-H8.27 (antibody, V domains shown)
VH: QVQLVQSGAEVKKPGASVKVSCKASGYAFTMAWMNWVRQAPGQGLEWIGRIFPGYGHTNYAQKFQGRATLTEDTSTSTAYMELSSLRSEDTAVYYCARDYSDYYFDYWGQGTLVTVSS
VL: DIQMTQSPSSLSASVGDRVTITCRASQDANTYLNWYQQKPGKAPKLLIYYTSRLHSGVPSRFSGSGSGTDYTLTISSLQPEDFATYYCQQGNLLPWTFGQGTKLEIK
B2: S7AB-H8.34 (antibody, V domains shown)
VH: B1 VH with M31A, Y55L
VL: B1 VL with A25G, A29I, N92G, L93T
B3: S7AB-H8.30 (antibody, V domains shown)
VH: B1 VH with M31E
VL: B1 VL
B4: S7AB-H8.33 (antibody, V domains shown)
VH: B1 VH with M31G, A32Y, Y55L
VL: B1 VL with A25G, A29I, N92G, L93T
B5: S7AB-H8.32 (antibody, V domains shown)
VH: B1 VH
VL: B1 VL with A25G, A29I, N92G, L93T
B6: S7AB-H8.31 (antibody, V domains shown)
VH: B1 VH with M31E, A32T, Y55L
VL: B1 VL with A25G, A29I, N92G, L93T
B7: S7AB-H8.28 (antibody, V domains shown)
VH: B1 VH with M31G, A32Y, Y55L
VL: B1 VL
B8: S7AB-H8.29 (antibody, V domains shown)
VH: B1 VH with M31A, Y55L
VL: B1 VL

Columns and labels:
[1] = target: human Siglec-7 on primary human monocyte-derived dendritic cells (human, UniProt Q9Y286 19-467); experiment: cell-based or functional assay
Sequence of human Siglec-7 on primary human monocyte-derived dendritic cells (Q9Y286 19-467): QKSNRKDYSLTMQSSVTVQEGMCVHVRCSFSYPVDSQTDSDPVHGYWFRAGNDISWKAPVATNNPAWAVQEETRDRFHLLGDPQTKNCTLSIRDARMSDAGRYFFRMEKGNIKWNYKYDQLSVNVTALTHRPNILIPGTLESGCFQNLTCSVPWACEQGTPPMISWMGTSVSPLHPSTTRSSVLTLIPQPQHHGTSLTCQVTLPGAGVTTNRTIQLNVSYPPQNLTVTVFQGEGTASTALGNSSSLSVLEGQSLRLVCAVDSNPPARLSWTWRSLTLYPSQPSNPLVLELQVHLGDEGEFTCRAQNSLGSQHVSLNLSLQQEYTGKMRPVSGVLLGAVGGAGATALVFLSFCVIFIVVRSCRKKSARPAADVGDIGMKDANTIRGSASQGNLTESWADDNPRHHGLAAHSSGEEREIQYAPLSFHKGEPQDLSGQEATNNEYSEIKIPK

[2] = target: T1, histidine-tagged human Siglec-7 (NovoProtein) (human, UniProt Q9Y286 19-353); experiment: BLI, antibody captured
T1 construct: Bought protein; also called recombinant human Siglec-7; recombinant Siglec-7; not shown: histidine tag
T1 sequence (Q9Y286 19-353 limits assumed): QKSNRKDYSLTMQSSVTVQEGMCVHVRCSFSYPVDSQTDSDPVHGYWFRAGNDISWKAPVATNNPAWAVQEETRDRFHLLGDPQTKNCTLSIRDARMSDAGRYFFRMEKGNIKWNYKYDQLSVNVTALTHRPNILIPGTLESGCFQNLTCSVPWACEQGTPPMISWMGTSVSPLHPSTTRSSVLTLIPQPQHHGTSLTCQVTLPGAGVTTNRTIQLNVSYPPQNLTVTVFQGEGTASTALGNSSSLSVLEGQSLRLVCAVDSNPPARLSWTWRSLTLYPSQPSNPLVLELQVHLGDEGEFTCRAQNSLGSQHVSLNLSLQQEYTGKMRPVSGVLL
Method: In this assay, the humanized antibodies were compared directly to S7AB. Briefly, the antibodies were captured on anti-human or anti-mouse IgG Fc Biosensors (Pall ForteBio). Varying concentrations (0-100 nM) of histidine-tagged human Siglec-7 (NovoProtein) were then bound to the captured anti-Siglec-7 surface (200 s association time, 900 s dissociation time). Multi-concentration kinetic analysis was performed using a 1:1 interaction model to extract association and dissociation rate constants (kₐ and kd, respectively) for each antibody. Apparent affinity constants (KD) were calculated from the ratio kd/kₐ.
The affinities of S7AB-H8 and variants S7AB-H8.1 through S7AB-H8.45 for human Siglec-7 were measured by BioLayer Interferometry according to the method described in Example 1 above.

Row | Binder | Fold increase in potency compared to AB-H8 [1] [fold] | Fold increase in potency compared to Chimeric Ab [1] [fold] | Maximal downregulation (% Siglec-7 remaining) [1] [%] | Receptor downregulation, (EC50) (pM) [1] [pM] | Kd [2] [nM] | fold improvement over S7AB-H8 [2] [fold] | koff [2] [s⁻¹] | kon [2] [M⁻¹ s⁻¹]
1 | B1 | 3.6 | 10.9 | 2.9 | 93.7 | 0.1 | 10.5 | 1.56e-05 | 156000
2 | B2 | 2.9 | 8.7 | 3.6 | 118 | 0.237 | 4.4 | 2.81e-05 | 119000
3 | B3 | 2.7 | 8.2 | 8.2 | 126 | 0.395 | 2.7 | 4.13e-05 | 105000
4 | B4 | 5.2 | 15.7 | 17.2 | 65.3 | 0.326 | 3.2 | 7.64e-05 | 235000
5 | B5 | 3.7 | 11.2 | 3.4 | 91.3 | 0.356 | 2.9 | 3.93e-05 | 111000
6 | B6 | 2.4 | 7.2 | 10.5 | 143 | 0.742 | 1.4 | 0.000107 | 145000
7 | B7 | 4.6 | 13.7 | 17 | 74.6 | 0.159 | 6.6 | 3.51e-05 | 221000
8 | B8 | 6.7 | 20 | 3.7 | 51.1 | 0.263 | 4 | 4e-05 | 152000

Reference: patent publication US20210246204A1 (Alector, published 2021)
